Results on 4 molecules are retold here after patent US20150110774A1, “S100 PROTEIN INHIBITORS FOR TREATING LEUKEMIA” (UNIVERSITE LAVAL, priority 2004, published 2015).

For experiment [1], the system named is advanced leukemia. The settings on record: clinical studies; cited from earlier work.
Experiment [2] concerns bone marrow cells from AML and CML patients. The experiment can be described thus: AML/CML patient bone marrow cell proliferation (colony assay). The class given is cell-based, human. The settings on record: FIG. 4. How it is done: PBMC and BM (5×10^4 cells) were incubated at 37° C. in methylcellulose-based media containing 1% methylcellulose in Iscove MDM, 30% foetal bovine serum, 1% BSA, 10^−4 M 2-mercaptoethanol and 2 mM of L-glutamine supplemented (+CSF) or not (−CSF) by 50 ng/mL of rhSCF, 10 ng/mL of rhIL-3, and 10 ng/mL of rhGM-CSF to support optimal growth of CFU-Granulocyte Macrophage (CFU-GM) CFU-Granulocyte (CFU-G) and CFU-Macrophage (CFU-M). Different concentrations of S100A12, S100A8, and/or S100A9 were also added to the cells. After 15 days, colony-forming units were counted.
Bone marrow cells were obtained by aspirates from a CML patient. (A) The cells were cultured for 14 days in Iscove medium supplemented with 15% FCS and 2% methylcellulose, in presence of increasing concentrations of S100A12. (B) The cells were culture for 14 days in presence of 10 pg/ml of S100A8, S100A9, S100A8/A9, or S100A12 in a methylcellulose medium supplemented or not with 50 ng/ml of Stem cell factor, 10 ng/ml of GM-CSF, and 10 ng/ml of IL-3. The results are the number of colonies per 30 mm^2 petri dishes (FIG. 4). As observed in Example III, different S100 proteins have stimulatory activity on bone marrow cells.

In experiment [3] the test system is leukocytes. The experiment can be described thus: Leukocyte accumulation in the murine air pouch model. The settings on record: air pouch exudate; remainder monocytes. It is filed as in vivo, mice. The protocol:
S100A8, S100A9, and S100A12 induce an inflammatory reaction when injected in the murine air pouch model. In this model, sterile air is injected subcutaneously under the dorsum of mice on days 0 and 3. On day 7, an enclosed environment is formed in which it is possible to inject pro-inflammatory products. Injection of S100A8, S100A9, S100A12, or S100A8/A9 in the air pouch leads to the accumulation within 3 hrs of up to 8×10^6 leukocytes (FIG. 1). Leukocytes recruited consists of neutrophils (80%) and monocytes. The total number of neutrophils circulating in the peripheral blood of a mouse is estimated at 2.5×10^6 cells. […] This is confirmed by i.v. injections of S100 proteins which leads to the release of neutrophils from the bone marrow to the peripheral blood (FIG. 2). […] More importantly, the concentrations at which they exerted these functions are similar to those found in the plasma of patients suffering, for example but not limited to, from AML and CML.
Air pouches were raised in 10 to 12 week-old CD-1 mice. One ml of murine S100A8 ([…], 5 nM) or phosphate buffered saline (PBS) were injected into the air pouches and the migrating leukocytes were harvested by washing with PBS-EDTA 5 mM at various times. Leukocytes in exudates were counted, centrifuged on microscope slides and stained with Wright-Giemsa. Data represent the mean±SEM of at least 7 mice (FIG. 1).

The test system of experiment [4] is bone marrow cells. The experiment can be described thus: Bone marrow cell proliferation (colonies in methylcellulose, 14 days). The class given is cell-based, mice. The conditions noted are these: mouse bone marrow cells, FIG. 3. The protocol: Bone marrow cells were collected by flushing PBS through incisions made in the femurs of mice, followed by disaggregation. After removing contaminating erythrocytes by hypoosmotic lysis, bone marrow cells were cultured in semi-solid state in Methocult methylcellulose-based media (Stemcell technologies) for 14 days in presence of increasing concentrations of S100A8. At the end of the incubation period, the colonies were numerated. Similar results were obtained with S100A9, S100A8/A9, and S100A12. Results are from one experiment representative of 2 others (FIG. 3). All monomers and heterodimers have shown a growth stimulatory activity on bone marrow cells.

As for `Nc1ccn([C@@H]2CO[C@H](CO)O2)c(=O)n1` [β-L-OddC, (−)-β-L-Dioxolane-Cytidine], the “activity in patients with advanced leukemia” value in experiment [1] is “significant activity”.

B1: S100A8: recombinant S100 calcium-binding protein, Myeloid Related Protein (MRP) (protein, UniProt P05109 1-93, looked up)
Protein S100-A8: MLTELEKALNSIIDVYHKYSLIKGNFHAVYRDDLKKLLETECPQYIRKKGADVWFKELDINTDGAVNFQEFLILVIKMGVAAHKKSHEESHKE
With B1, the “proliferation of bone marrow cells from AML and CML patients” value in experiment [2] is “proliferation also occurs”. In addition, the “neutrophils among leukocytes recruited” value in experiment [3] is listed as 80%. Also, the “proliferation of bone marrow cells” value in experiment [4] is “increase of proliferation”.

B2: S100A8/A9: heterodimer of S100A8 and S100A9 (protein, UniProt P05109 1-93; P06702 1-114, looked up)
Protein S100-A8: B1 Protein S100-A8
Protein S100-A9: MTCKMSQLERNIETIINTFHQYSVKLGHPDTLNQGEFKELVRKDLQNFLKKENKNEKVIEHIMEDLDTNADKQLSFEEFIMLMARLTWASHEKMHEGDEGPGHHHKPGLGEGTP
On to B2, for which the “neutrophils among leukocytes recruited” value in experiment [3] stood at 80%. In addition, the “proliferation of bone marrow cells” value in experiment [4] is on record as “increase of proliferation”.

B3: S100A9: recombinant S100 calcium-binding protein, Myeloid Related Protein (MRP) (protein, UniProt P06702 1-114, looked up)
Protein S100-A9: B2 Protein S100-A9
As to B3, the “proliferation of bone marrow cells from AML and CML patients” value in experiment [2] is “proliferation also occurs”. The “neutrophils among leukocytes recruited” value in experiment [3] is recorded as 80%. In experiment [4], the “proliferation of bone marrow cells” value is on record as “increase of proliferation”.
